The labels stand for the following.
B2: mouse apoptosis inhibitor of macrophage (AIM), wild-type recombinant (other, UniProt Q9QWK4 22-352, looked up)
chain: ESPTKVQLVGGAHRCEGRVEVEHNGQWGTVCDDGWDRRDVAVVCRELNCGAVIQTPRGASYQPPASEQRVLIQGVDCNGTEDTLAQCELNYDVFDCSHEEDAGAQCENPDSDLLFIPEDVRLVDGPGHCQGRVEVLHQSQWSTVCKAGWNLQVSKVVCRQLGCGRALLTYGSCNKNTQGKGPIWMGKMSCSGQEANLRSCLLSRLENNCTHGEDTWMECEDPFELKLVGGDTPCSGRLEVLHKGSWGSVCDDNWGEKEDQVVCKQLGCGKSLHPSPKTRKIYGPGAGRIWLDDVNCSGKEQSLEFCRHRLWGYHDCTHKEDVEVICTDFDV
notes: mature; also called rAIM; mouse AIM

Test [1] addresses human HSP70 (Endotoxin Free; SPR-117A, StressMarq) (human, UniProt P0DMV8 1-641). Kind of test: ELISA, DAMP coated at 2 µg/mL, AIM in solution (FIG. 4). From the text:
(§1) Therefore, AIM is considered to stably bind to DAMPs through two independent binding modes, namely, charge-based interaction and disulfide bond formation. These two binding sites are also used to bind AIM and IgM pentamer, as previously reported by the present inventors (Hiramoto et al., (2018) (the aforementioned)). […] Furthermore, IgM pentamer not bound to AIM inhibited the binding of AIM to DAMPs in a dose-dependent manner (FIG. 3G). That is, the binding to IgM pentamer functionally inactivates AIM in the binding to DAMPs. Furthermore, the present inventors evaluated under a fluorescence microscope whether the trap and uptake of PRDX1, HMGB1, and S100A9 by macrophages in vitro is inhibited in the presence of rAIM. […] It is known that somewhat larger molecules are more easily taken up by phagocytes (Aderem & Underhill, (1999). Mechanisms of Phagocytosis in Macrophages. Annu. Rev. Immunol. 17, 593-623.; Sarrias et al., (2005) (the aforementioned); Canton et al., Scavenger receptors in homeostasis and immunity. Nat. Rev. Immunol. 13, 621-634.). Therefore, induction of PRDX1 aggregation by AIM is further advantageous for PRDX1 phagocytosis.

Test [2] deals with mouse HSP70-A1 (low endotoxin; ADI-ESP-502-D, Enzo) (mouse, UniProt Q61696 1-641). Described as above.
Source text: as §1

Test [3] concerns the target B2. Put plainly: immunofluorescence co-localisation on peritoneal macrophages, confocal microscope (FIG. 3H). On the procedure: Peritoneal macrophages isolated from AIM^{-/-} mice were plated on a Lab-Tek II chamber slide (NalgeNunk) and cultured for 2 h to let them attach to the slide. The cells were incubated with 10 μg/mL of DAMPs (mouse PRDX1-His, human PRDX1-His, human HMGB1, or mouse S100A9) with or without wild-type mouse or human rAIM (100 μg/mL) at 37° C. for 10 min. For mouse PRDX1, the mutants of 2CS or ΔSRCR3 were also used. Each ligand and AIM were immunostained with antibodies to His (for mouse and human PRDX1), HMGB1 or S100A9, followed by fluorescent-conjugated secondary antibodies. Nuclei were stained with 4′,6-diamidino-2-phenylindole (DAPI). The cells were analyzed under a florescence confocal microscope.

mouse HSP70-A1 (low endotoxin; ADI-ESP-502-D, Enzo), sequence (Q61696 whole entry): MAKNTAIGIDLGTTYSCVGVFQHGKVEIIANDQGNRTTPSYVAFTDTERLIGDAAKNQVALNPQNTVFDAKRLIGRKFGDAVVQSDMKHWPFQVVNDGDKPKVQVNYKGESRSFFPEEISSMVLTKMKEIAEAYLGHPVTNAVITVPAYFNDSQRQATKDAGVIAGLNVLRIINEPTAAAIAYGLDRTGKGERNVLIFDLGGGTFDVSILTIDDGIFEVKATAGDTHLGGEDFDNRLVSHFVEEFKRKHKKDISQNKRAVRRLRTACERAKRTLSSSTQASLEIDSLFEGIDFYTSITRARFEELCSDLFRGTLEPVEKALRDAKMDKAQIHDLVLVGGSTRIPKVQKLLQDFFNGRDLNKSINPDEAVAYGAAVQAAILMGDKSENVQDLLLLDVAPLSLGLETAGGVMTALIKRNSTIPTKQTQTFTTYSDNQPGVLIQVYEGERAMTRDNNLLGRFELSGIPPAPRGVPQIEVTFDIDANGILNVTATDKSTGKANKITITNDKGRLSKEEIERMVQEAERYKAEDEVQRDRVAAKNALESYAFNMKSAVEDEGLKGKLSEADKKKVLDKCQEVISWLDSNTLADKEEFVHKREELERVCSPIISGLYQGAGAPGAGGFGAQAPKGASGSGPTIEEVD
human HSP70 (Endotoxin Free; SPR-117A, StressMarq), sequence (P0DMV8 whole entry): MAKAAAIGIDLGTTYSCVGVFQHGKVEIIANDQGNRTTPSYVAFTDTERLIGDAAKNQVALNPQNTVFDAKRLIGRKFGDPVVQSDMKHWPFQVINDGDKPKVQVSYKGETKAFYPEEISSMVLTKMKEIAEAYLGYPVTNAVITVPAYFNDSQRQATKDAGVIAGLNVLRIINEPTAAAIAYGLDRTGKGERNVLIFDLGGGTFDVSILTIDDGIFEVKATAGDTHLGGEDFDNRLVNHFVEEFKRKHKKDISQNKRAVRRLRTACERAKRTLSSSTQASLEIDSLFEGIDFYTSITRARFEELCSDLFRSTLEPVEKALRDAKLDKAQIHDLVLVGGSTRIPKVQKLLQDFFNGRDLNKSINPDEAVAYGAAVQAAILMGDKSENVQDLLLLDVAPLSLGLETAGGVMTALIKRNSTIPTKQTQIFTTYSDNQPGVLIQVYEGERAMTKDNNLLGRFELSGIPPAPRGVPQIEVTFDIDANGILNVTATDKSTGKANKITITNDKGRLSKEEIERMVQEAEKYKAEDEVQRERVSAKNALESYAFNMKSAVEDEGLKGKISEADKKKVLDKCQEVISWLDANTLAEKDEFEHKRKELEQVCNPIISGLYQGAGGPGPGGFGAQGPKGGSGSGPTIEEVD

B1: human apoptosis inhibitor of macrophage (AIM) (other)
chain: SPSGVRLVGGLHRCEGRVEVEQKGQWGTVCDDGWDIKDVAVLCRELGCGAASGTPSGILYEPPAEKEQKVLIQSVSCTGTEDTLAQCEQEEVYDCSHDEDAGASCENPESSFSPVPEGVRLADGPGHCKGRVEVKHQNQWYTVCQTGWSLRAAKVVCRQLGCGRAVLTQKRCNKHAYGRKPIWLSQMSCSGREATLQDCPSGPWGKNTCNHDEDTWVECEDPFDLRLVGGDNLCSGRLEVLHKGVWGSVCDDNWGEKEDQVVCKQLGCGKSLSPSFRDRKCYGPGVGRIWLDNVRCSGEEQSLEQCQHRFWGFHDCTHQEDVAVICSG
notes: also called human AIM; human rAIM
In the case of B1, the binding result in test [1] is recorded as “binds”. As to B2, the binding result in test [2] is recorded as “binds”.

B3: mouse PRDX1-His (RPF757Mu01, USCN) (ligand, UniProt P35700 1-199, looked up)
chain: MSSGNAKIGYPAPNFKATAVMPDGQFKDISLSEYKGKYVVFFFYPLDFTFVCPTEIIAFSDRADEFKKLNCQVIGASVDSHFCHLAWINTPKKQGGLGPMNIPLISDPKRTIAQDYGVLKADEGISFRGLFIIDDKGILRQITINDLPVGRSVDEIIRLVQAFQFTDKHGEVCPAGWKPGSDTIKPDVNKSKEYFSKQK
notes: also called RPDX; not shown: His tag
On to B3, for which the binding result in test [3] is listed as “binds”.

The values above are taken from patent publication US20250108090A1 (published 2025).
